Literature values as cited in paper PMC4431351.

Biological target: MUC1 tandem-repeat synthetic peptide (UniProt P15941)
Conditions: Probe assembled in 5 mM sodium phosphate pH 7.4, then PBS (10 mM sodium phosphate, 140 mM NaCl, 2.70 mM KCl, pH 7.6), room temperature; cell incubation details …

Sequence of UniProt P15941 (P15941 whole entry): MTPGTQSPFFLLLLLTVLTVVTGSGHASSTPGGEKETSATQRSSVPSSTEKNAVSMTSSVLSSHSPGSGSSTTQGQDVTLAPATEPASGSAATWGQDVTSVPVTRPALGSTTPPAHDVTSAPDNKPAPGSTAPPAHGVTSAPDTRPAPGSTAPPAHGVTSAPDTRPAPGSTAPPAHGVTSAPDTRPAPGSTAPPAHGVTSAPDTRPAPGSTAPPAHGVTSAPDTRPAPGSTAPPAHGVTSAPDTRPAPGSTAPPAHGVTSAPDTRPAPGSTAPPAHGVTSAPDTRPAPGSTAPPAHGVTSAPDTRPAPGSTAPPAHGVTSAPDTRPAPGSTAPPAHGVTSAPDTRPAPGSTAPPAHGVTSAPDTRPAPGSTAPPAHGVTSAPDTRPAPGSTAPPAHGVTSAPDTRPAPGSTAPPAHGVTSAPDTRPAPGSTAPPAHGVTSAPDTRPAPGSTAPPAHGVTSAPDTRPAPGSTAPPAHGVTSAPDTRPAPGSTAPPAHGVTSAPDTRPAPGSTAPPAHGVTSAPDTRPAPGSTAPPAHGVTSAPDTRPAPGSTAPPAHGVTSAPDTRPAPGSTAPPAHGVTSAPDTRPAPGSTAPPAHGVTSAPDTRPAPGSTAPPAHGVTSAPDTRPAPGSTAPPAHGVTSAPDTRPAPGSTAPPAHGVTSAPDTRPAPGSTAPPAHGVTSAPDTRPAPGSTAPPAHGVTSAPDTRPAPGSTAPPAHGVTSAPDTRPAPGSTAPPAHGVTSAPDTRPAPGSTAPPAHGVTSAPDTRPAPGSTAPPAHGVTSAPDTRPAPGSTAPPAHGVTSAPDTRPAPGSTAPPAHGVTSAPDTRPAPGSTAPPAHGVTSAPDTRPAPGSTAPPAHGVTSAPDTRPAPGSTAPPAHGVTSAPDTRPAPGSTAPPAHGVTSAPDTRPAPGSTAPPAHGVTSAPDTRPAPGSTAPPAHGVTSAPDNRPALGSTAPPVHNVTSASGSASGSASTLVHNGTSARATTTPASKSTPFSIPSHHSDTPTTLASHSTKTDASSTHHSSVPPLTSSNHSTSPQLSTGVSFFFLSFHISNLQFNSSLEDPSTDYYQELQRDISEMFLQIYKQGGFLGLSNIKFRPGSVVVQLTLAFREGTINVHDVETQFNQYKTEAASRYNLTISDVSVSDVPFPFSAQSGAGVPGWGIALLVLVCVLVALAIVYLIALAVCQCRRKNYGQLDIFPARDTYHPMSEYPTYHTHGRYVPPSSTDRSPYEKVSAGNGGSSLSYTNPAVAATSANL

For “GCAGTTGATCCTTTGGATACCCTGG [AptMUC1 (25-mer)]”, the Kd is given as 0.1 nM.
